From article PMC10708208 (Science Advances, 2023)
Where two headings read alike, the source gives them in different places.

B1: SipA^α (SipA_(497–669)) (domain or fragment)
chain: NKAGTTDNDNSQTDKTGPFSGLKFKQNSFLSTVPSVTNMHSMHFDARETFLGVIRKALEPDTSTPFPVRRAFDGLRAEILPNDTIKSAALKAQCSDIDKHPELKAKMETLKEVITHHPQKEKLAEIALQFAREAGLTRLKGETDYVLSNVLDGLIGDGSWRAGPAYESYLNKP
B2: SipA^β (SipA_(426–685)) (domain or fragment)
chain: GETTSFDEVDGVTSKSIIGKPVQATVHGVDDNKQQSQTAEIVNVKPLASQLAGVENVKTDTLQSDTTVITGNKAGTTDNDNSQTDKTGPFSGLKFKQNSFLSTVPSVTNMHSMHFDARETFLGVIRKALEPDTSTPFPVRRAFDGLRAEILPNDTIKSAALKAQCSDIDKHPELKAKMETLKEVITHHPQKEKLAEIALQFAREAGLTRLKGETDYVLSNVLDGLIGDGSWRAGPAYESYLNKPGVDRVITTVDGLHMQR

How the values were obtained:
[1] = biological target: T1, F-actin (cryo-EM samples) ( (chicken and rabbit muscle …, UniProt P68139 1-377)); assay: cryo-EM structure
[2] = biological target: T1, F-actin (cryo-EM samples); assay: cryo-EM structure; remark: listed apart in the source

Binder | stoichiometry N [1] | stoichiometry N [2]
B1 | 0.5 SipA per actin subunit (molar ratio) | –
B2 | – | 0.5 SipA per actin subunit (molar ratio)
